According to patent US20120159674A1:

Target: Cry1Ab receptor proteins in brush border membrane vesicle (BBMV) preparations from the midgut of Heliothis zea larvae
Test: homologous competition with 0.25 nM ^125I Cry1Ab on H. zea BBMV (0.10 mg protein/ml)

Cry1Ab core toxin (trypsin truncated Cry1Ab)
IC50: 2 nM
